{"source": "paper PMC4212957", "about": "“The serodominant secreted effector protein of Salmonella, SseB, is a strong CD4 antigen containing an immunodominant epitope presented by diverse HLA class II alleles” (Immunology, 2014)", "molecules": {"B1": {"name": "SseB: Recombinant SseB protein of Salmonella, codon optimized, expressed in E. coli (protein, UniProt Q7BVH7 1-196, looked up)", "Secreted effector protein SseB": "MSSGNILWGSQNPIVFKNSFGVSNADTGSQDDLSQQNPFAEGYGVLLILLMVIQAIANNKFIEVQKNAERARNTQEKSNEMDEVIAKAAKGDAKTKEEVPEDVIKYMRDNGILIDGMTIDDYMAKYGDHGKLDKGGLQAIKAALDNDANRNTDLMSQGQITIQKMSQELNAVLTQLTGLISKWGEISSMIAQKTYS", "modifications": "recombinant, codon optimized, E. coli expressed"}}, "key": {"[1]": {"test_system": "draining lymph node cells of HLA-DR1 transgenic mice", "assay": "Murine IFN-γ ELISpot, HLA-DR1 transgenic mice primed with SseB", "settings": "mouse, in vivo", "excerpt": "(§1) Mice transgenic for HLA-DR1 (that is, HLA-DRA1*0101/HLA-DRB1*0101) and HLA-DR4 (that is, HLA-DRA1*0101/HLA-DRB1*0401)[24]–[26] were bred and housed in the Centre for Biological Services at the Hammersmith campus, Imperial College London, UK, in accordance with Home Office regulations and College ethics review. Both transgenic lines are maintained on a C57BL/6 background as homozygotes for knockout of murine MHC Class II H2-Aβ.[27]\n(§2) HLA-DR1 or HLA-DR4 transgenic mice were primed, by subcutaneous injection into the footpad, with 25 μg of recombinant SseB protein administered as a 1 : 1 emulsion with TiterMax® Gold (CytRx Corporation, Los Angeles, CA). Ten days after priming, popliteal draining lymph nodes were harvested and stimulated, in triplicate, at 2 × 10^5 cells per well with 25 μg of SseB peptide or recombinant protein in pre-coated murine IFN-γ ELISpot plates (2BScientific, Upper Heyford, Oxfordshire, UK). Culture medium was RPMI-1640 containing 2 mM L-glutamine, 50 U/ml penicillin G, 50 μg/ml streptomycin sulphate, 50 μM β-mercaptoethanol and 10% fetal calf serum. Cells were cultured at 37° and in 5% CO2 for 72 hr before assay development using a biotinylated anti-IFN-γ antibody, a horseradish peroxidase detection antibody and TMB substrate (2BScientific). Developed plates were left to dry before spot counting using an AID ELISpot reader (Autoimmun Diagnostika GMBH). Positive epitopes for a given transgenic line were defined as those where more than half of assayed animals gave a greater number of spot-forming cells than 2 SD over the mean of the no protein/peptide control.\n(§3) Fig 1 Definition of HLA-DR specific T-cell epitopes in DR1 and DR4 transgenic mice. (a) HLA-DR1 (n = 5) and (b) HLA-DR4 (n = 6) mice were footpad primed with ssEB protein in combination with TiterMax® Gold adjuvant. Draining lymph node (DLN) cells were assayed by ELISpot at day 10 for interferon-γ (IFN-γ) T-cell responses to ssEB peptides and protein. A peptide was defined as containing a T-cell epitope for DR1 or DR4 HLA molecules if more than half of the mice assayed gave a greater number of spot-forming cells than 2 SD over the mean of the no peptide/protein control. The 2 SD value for each transgenic line is shown by a dotted line."}, "[2]": {"test_system": "draining lymph node cells of HLA-DR4 transgenic mice", "assay": "Murine IFN-γ ELISpot, HLA-DR4 transgenic mice primed with SseB", "settings": "mouse, in vivo", "excerpt": "as §1, §2, §3"}, "[3]": {"test_system": "Salmonella SL1344", "settings": "C57BL/6 mice, immunization with two doses; cited from earlier work", "excerpt": "There have been a limited number of studies aimed at exploring candidates from the S. Typhi immunome for serodiagnostic, serodominant or protective credentials with respect to B-cell or T-cell immunity.[16]–[19] Some candidate antigens have been successfully deployed to induce protective immunity against challenge in mice; these antigens include OmpL, SseB, SseD and CirA.[16],[18],[19] Antigen arrays have been informative: an array of 2724 Salmonella enterica serovar Typhi antigens, selected on the basis of key terms such as ‘outer membrane’ or ‘chaperone’, representing over 63% of the proteom ..."}}, "data": [{"molecule": "B1", "values": [{"measurement": "IFN-γ ELISpot recall response / CD4 epitope in HLA-DR1 transgenic mice", "setting": "[1]", "result": "highly immunogenic"}, {"measurement": "IFN-γ ELISpot recall response / CD4 epitope in HLA-DR4 transgenic mice", "setting": "[2]", "result": "relatively large response"}, {"measurement": "protection from oral challenge (mean survival time and tissue bacterial burden)", "setting": "[3]", "result": "substantial protection"}]}]}
